Assay [1] addresses Src homology 2 domain containing protein tyrosine phosphatase substrate 1 (SHPS-1), endogenous in porcine aortic smooth muscle cells (porcine) (UniProt F1S887). Kind of assay: SHPS-1 immunoprecipitated from transfected pSMCs, immunoblot for FLAG, densitometry. For orientation: In western blotting, separated proteins are transferred to a membrane and probed.
Assay [2] addresses T1, Src homology 2 domain containing protein tyrosine phosphatase substrate 1 (SHPS-1), endogenous in porcine … (porcine, UniProt F1S887 31-509).
T1 sequence: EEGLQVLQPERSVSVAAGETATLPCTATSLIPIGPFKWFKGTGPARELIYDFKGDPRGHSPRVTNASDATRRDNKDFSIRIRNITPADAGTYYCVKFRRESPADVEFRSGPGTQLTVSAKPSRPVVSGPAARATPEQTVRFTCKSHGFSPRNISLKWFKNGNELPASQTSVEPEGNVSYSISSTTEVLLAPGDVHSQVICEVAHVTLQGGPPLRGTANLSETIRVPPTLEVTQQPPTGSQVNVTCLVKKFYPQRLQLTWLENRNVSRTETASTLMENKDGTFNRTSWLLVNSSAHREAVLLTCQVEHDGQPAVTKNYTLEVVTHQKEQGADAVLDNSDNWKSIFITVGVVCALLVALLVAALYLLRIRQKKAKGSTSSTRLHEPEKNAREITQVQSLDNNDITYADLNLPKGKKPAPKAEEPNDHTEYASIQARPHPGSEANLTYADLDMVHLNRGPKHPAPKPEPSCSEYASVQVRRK
Kind of assay: cell-based or functional assay.

The target in assay [3] is T2, integrin associated protein (IAP), endogenous in porcine aortic smooth muscle cells (porcine) (UniProt Q9GKE8).
T2 sequence (looked up): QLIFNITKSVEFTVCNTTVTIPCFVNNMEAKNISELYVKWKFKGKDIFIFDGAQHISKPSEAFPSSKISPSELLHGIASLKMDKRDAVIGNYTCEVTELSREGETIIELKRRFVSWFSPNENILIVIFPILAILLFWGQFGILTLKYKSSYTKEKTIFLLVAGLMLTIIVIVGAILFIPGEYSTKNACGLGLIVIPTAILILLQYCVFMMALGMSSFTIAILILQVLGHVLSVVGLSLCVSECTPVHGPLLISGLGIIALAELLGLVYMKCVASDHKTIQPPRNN
Kind of assay: pSMCs incubated 2 h with B6H12 (4 ug/ml); SHPS-1 immunoprecipitated, immunoblot for IAP, densitometry.

Where a chain is given by its changes, count along the chain named.

In the case of “IAP with truncation of extracellular domain at residue 135 and containing a C-terminal FLAG epitope (IAPcyto) (from UniProt Q9GKE8 135-303) (receptor)”, in assay [1], the % reduction in IAP association with SHPS-1 compared with cells expressing IAP fl is 88%.

B1: integrin associated protein (IAP), endogenous in porcine aortic smooth muscle cells (receptor, UniProt Q9GKE8 19-303, looked up)
chain: T2 sequence (looked up)
On to B1, for which, in assay [2], the “IGF-1 stimulated cell proliferation, cells incubated with B6H12” value came out at 1.03 fold; the “IGF-1 stimulated increase in SHPS-1 phosphorylation, cells pretreated with B6H12” value is 0.93 fold; the “fold increase in SHPS-1 phosphorylation in response to IGF-1, control cells (no antibody)” value worked out at 4.1 fold; the “fold increase in cell proliferation with IGF-1, no antibody” value amounted to 2.2 fold.

B2: anti IAP monoclonal antibody B6H12 (antibody, from another filing)
scFv: EVQLVESGGDLVKPGGSLKLSCAASGFTFSGYGMSWVRQTPDKRLEWVATITSGGTYTYYPDSVKGRFTISRDNAKNTLYLQIDSLKSEDTAIYFCARSLAGNAMDYWGQGTSVTVSSGGGGSGGGGSGGGGSDIVMTQSPATLSVTPGDRVSLSCRASQTISDYLHWYQQKSHESPRLLIKFASQSISGIPSRFSGSGSGSDFTLSINSVEPEDVGVYYCQNGHGFPRTFGGGTKLEIKEQKLISEEDL
The molecule B2 yielded a % reduction of the interaction between IAP and SHPS-1 in assay [3] of 75%.

The values are drawn from patent publication US20140141002A1 (UNIVERSITY OF NORTH CAROLINA AT CHAPEL HILL, published 2014).
